How the values were obtained:
[1] = target: EGFRvIII (human, UniProt P00533); test: BLI
[2] = target: EGFR (wild-type, His-tagged or biotinylated) (human, UniProt P00533); test: BLI

Kd [1] | Kd [2] | Binder
0.358 nM | 7.3 nM | SI-95X46 (antibody) chain 1: not shown chain 2: EIVLTQSPSTLSVSPGERATFSCRASQSIGTNIHWYQQKPGKPPRLLIKYASESISGIPDRFSGSGSGTEFTLTISSVQSEDFAVYYCQQNNNWPTTFGPGTKLTVLRTVAAPSVFIFPPSDEQLKSGTASVVCLLNNFYPREAKVQWKVDNALQSGNSQESVTEQDSKDSTYSLSSTLTLSKADYEKHKVYACEVTHQGLSSPVTKSFNRGEC
0.291 nM | 17.6 nM | SI-95X49 (antibody) chain 1: not shown chain 2: EIVLTQSPSTLSVSPGERATFSCRASQSIGTNIHWYQQKPGKPPRLLIKYASESISGIPDRFSGSGSGTEFTLTISSVQSEDFAVYYCQQNFNWPTTFGPGTKLTVLRTVAAPSVFIFPPSDEQLKSGTASVVCLLNNFYPREAKVQWKVDNALQSGNSQESVTEQDSKDSTYSLSSTLTLSKADYEKHKVYACEVTHQGLSSPVTKSFNRGEC
0.272 nM | 20.6 nM | SI-95X47 (antibody) chain 1: not shown chain 2: EIVLTQSPSTLSVSPGERATFSCRASQSIGTNIHWYQQKPGKPPRLLIKYASESISGIPDRFSGSGSGTEFTLTISSVQSEDFAVYYCQQNNNWPTTFGPGTKLTVLRTVAAPSVFIFPPSDEQLKSGTASVVCLLNNFYPREAKVQWKVDNALQSGNSQESVTEQDSKDSTYSLSSTLTLSKADYEKHKVYACEVTHQGLSSPVTKSFNRGEC
0.207 nM | 1.38 nM | SI-95X50 (antibody) chain 1: not shown chain 2: EIVLTQSPSTLSVSPGERATFSCRASQSIGTNIHWYQQKPGKPPRLLIKYASESISGIPDRFSGSGSGTEFTLTISSVQSEDFAVYYCQQNNNWPTTFGPGTKLTVLRTVAAPSVFIFPPSDEQLKSGTASVVCLLNNFYPREAKVQWKVDNALQSGNSQESVTEQDSKDSTYSLSSTLTLSKADYEKHKVYACEVTHQGLSSPVTKSFNRGEC
1.11 nM | 4.61 nM | SI-95X45 (antibody) chain 1: not shown chain 2: EIVLTQSPSTLSVSPGERATFSCRASQSIGTNIHWYQQKPGKPPRLLIKYASESISGIPDRFSGSGSGTEFTLTISSVQSEDFAVYYCQQNNNWPTTFGPGTKLTVLRTVAAPSVFIFPPSDEQLKSGTASVVCLLNNFYPREAKVQWKVDNALQSGNSQESVTEQDSKDSTYSLSSTLTLSKADYEKHKVYACEVTHQGLSSPVTKSFNRGEC
0.807 nM | 16 nM | SI-95X58 (antibody) chain 1: not shown chain 2: EIVLTQSPSTLSVSPGERATFSCRASQSIGTNIHWYQQKPGKPPRLLIKYASESISGIPDRFSGSGSGTEFTLTISSVQSEDFAVYYCQQNNNWPTTFGPGTKLTVLRTVAAPSVFIFPPSDEQLKSGTASVVCLLNNFYPREAKVQWKVDNALQSGNSQESVTEQDSKDSTYSLSSTLTLSKADYEKHKVYACEVTHQGLSSPVTKSFNRGECGGGGSGGGGGSGGGGSGGGGSQVQLQESGPSLVKPSQTLSLTCTVSGYSITSDFAWNWIRQFPGRKLEWMGYISYSGNTRYNPSLKSRFTISRDTSKNQFYLKLRSVTIADTAVYYCVTAGRGFPYWGQGTLVTVSSGGGGSGGGGSGGGGSDIVMTQSPSSVSLSLGDRVTITCHSSQDINSNIGWLQQKPGKAFKGLIYHGTNLDDGVPSRFSGSGSGADYTLTISSLQAEDFATYYCVQYAQFPWTFGPGTKLEIK
1.95 nM | 4.98 nM | SI-95X60 (antibody) chain 1: not shown chain 2: EIVLTQSPSTLSVSPGERATFSCRASQSIGTNIHWYQQKPGKPPRLLIKYASESISGIPDRFSGSGSGTEFTLTISSVQSEDFAVYYCQQNNNWPTTFGPGTKLTVLRTVAAPSVFIFPPSDEQLKSGTASVVCLLNNFYPREAKVQWKVDNALQSGNSQESVTEQDSKDSTYSLSSTLTLSKADYEKHKVYACEVTHQGLSSPVTKSFNRGECGGGGSGGGGGSGGGGSGGGGSQVQLQESGPSLVKPSQTLSLTCTVSGYSITSDFAWNWIRQFPGRKLEWMGYISYSGNTRYNPSLKSRFTISRDTSKNQFYLKLRSVTIADTAVYYCVTAGRGFPYWGQGTLVTVSSGGGGSGGGGSGGGGSDIVMTQSPSSVSLSLGDRVTITCHSSQDINSNIGWLQQKPGKAFKGLIYHGTNLDDGVPSRFSGSGSGADYTLTISSLQAEDFATYYCVQYAQFPWTFGPGTKLEIK
1.03 nM | 23.6 nM | SI-95X59 (antibody) chain 1: not shown chain 2: EIVLTQSPSTLSVSPGERATFSCRASQSIGTNIHWYQQKPGKPPRLLIKYASESISGIPDRFSGSGSGTEFTLTISSVQSEDFAVYYCQQNNNWPTTFGPGTKLTVLRTVAAPSVFIFPPSDEQLKSGTASVVCLLNNFYPREAKVQWKVDNALQSGNSQESVTEQDSKDSTYSLSSTLTLSKADYEKHKVYACEVTHQGLSSPVTKSFNRGECGGGGSGGGGGSGGGGSGGGGSQVQLQESGPSLVKPSQTLSLTCTVSGYSITSDFAWNWIRQFPGRKLEWMGYISYSGNTRYNPSLKSRFTISRDTSKNQFYLKLRSVTIADTAVYYCVTAGRGFPYWGQGTLVTVSSGGGGSGGGGSGGGGSDIVMTQSPSSVSLSLGDRVTITCHSSQDINSNIGWLQQKPGKAFKGLIYHGTNLDDGVPSRFSGSGSGADYTLTISSLQAEDFATYYCVQYAQFPWTFGPGTKLEIK
0.549 nM | 0.768 nM | SI-95X57 (antibody) chain 1: not shown chain 2: EIVLTQSPSTLSVSPGERATFSCRASQSIGTNIHWYQQKPGKPPRLLIKYASESISGIPDRFSGSGSGTEFTLTISSVQSEDFAVYYCQQNNNWPTTFGPGTKLTVLRTVAAPSVFIFPPSDEQLKSGTASVVCLLNNFYPREAKVQWKVDNALQSGNSQESVTEQDSKDSTYSLSSTLTLSKADYEKHKVYACEVTHQGLSSPVTKSFNRGECGGGGSGGGGGSGGGGSGGGGSQVQLQESGPSLVKPSQTLSLTCTVSGYSITSDFAWNWIRQFPGRKLEWMGYISYSGNTRYNPSLKSRFTISRDTSKNQFYLKLRSVTIADTAVYYCVTAGRGFPYWGQGTLVTVSSGGGGSGGGGSGGGGSDIVMTQSPSSVSLSLGDRVTITCHSSQDINSNIGWLQQKPGKAFKGLIYHGTNLDDGVPSRFSGSGSGADYTLTISSLQAEDFATYYCVQYAQFPWTFGPGTKLEIK
0.493 nM | 0.497 nM | SI-95X63 (antibody) chain 1: not shown chain 2: DILMTQSPSSMSVSLGDTVSITCHSSQDINSNIGWLQQRPGKSFKGLIYHGTNLDDEVPSRFSGSGSGADYSLTISSLESEDFADYYCVQYAQFPWTFGGGTKLEIKRTVAAPSVFIFPPSDEQLKSGTASVVCLLNNFYPREAKVQWKVDNALQSGNSQESVTEQDSKDSTYSLSSTLTLSKADYEKHKVYACEVTHQGLSSPVTKSFNRGEC
0.865 nM | 1.87 nM | SI-95X68 (antibody) chain 1: not shown chain 2: DILMTQSPSSMSVSLGDTVSITCHSSQDINSNIGWLQQRPGKSFKGLIYHGTNLDDEVPSRFSGSGSGADYSLTISSLESEDFADYYCVQYAQFPWTFGGGTKLEIKRTVAAPSVFIFPPSDEQLKSGTASVVCLLNNFYPREAKVQWKVDNALQSGNSQESVTEQDSKDSTYSLSSTLTLSKADYEKHKVYACEVTHQGLSSPVTKSFNRGEC
0.638 nM | 2.31 nM | SI-95X64 (antibody) chain 1: not shown chain 2: DILMTQSPSSMSVSLGDTVSITCHSSQDINSNIGWLQQRPGKSFKGLIYHGTNLDDEVPSRFSGSGSGADYSLTISSLESEDFADYYCVQYAQFPWTFGGGTKLEIKRTVAAPSVFIFPPSDEQLKSGTASVVCLLNNFYPREAKVQWKVDNALQSGNSQESVTEQDSKDSTYSLSSTLTLSKADYEKHKVYACEVTHQGLSSPVTKSFNRGEC
0.466 nM | 1.81 nM | SI-95X44 (antibody) chain 1: not shown chain 2: DILMTQSPSSMSVSLGDTVSITCHSSQDINSNIGWLQQRPGKSFKGLIYHGTNLDDEVPSRFSGSGSGADYSLTISSLESEDFADYYCVQYAQFPWTFGGGTKLEIKRTVAAPSVFIFPPSDEQLKSGTASVVCLLNNFYPREAKVQWKVDNALQSGNSQESVTEQDSKDSTYSLSSTLTLSKADYEKHKVYACEVTHQGLSSPVTKSFNRGEC
1.16 nM | 0.954 nM | SI-95X40 (antibody) chain 1: not shown chain 2: DIQMTQSPSSLSASVGDRVTITCRSSQNIVHSNGNTYLDWYQQTPGKAPKLLIYKVSNRFSGVPSRFSGSGSGTDFTFTISSLQPEDIATYYCFQYSHVPWTFGQGTKLQITRTVAAPSVFIFPPSDEQLKSGTASVVCLLNNFYPREAKVQWKVDNALQSGNSQESVTEQDSKDSTYSLSSTLTLSKADYEKHKVYACEVTHQGLSSPVTKSFNRGEC
1.16 nM | 1.81 nM | SI-95X51 (antibody) chain 1: not shown chain 2: DIVMTQSPSSVSLSLGDRVTITCHSSQDINSNIGWLQQKPGKAFKGLIYHGTNLDDGVPSRFSGSGSGADYTLTISSLQAEDFATYYCVQYAQFPWTFGPGTKLEIKRTVAAPSVFIFPPSDEQLKSGTASVVCLLNNFYPREAKVQWKVDNALQSGNSQESVTEQDSKDSTYSLSSTLTLSKADYEKHKVYACEVTHQGLSSPVTKSFNRGEC
1.47 nM | 19.3 nM | SI-95X52 (antibody) chain 1: not shown chain 2: DIVMTQSPSSVSLSLGDRVTITCHSSQDINSNIGWLQQKPGKAFKGLIYHGTNLDDGVPSRFSGSGSGADYTLTISSLQAEDFATYYCVQYAQFPWTFGPGTKLEIKRTVAAPSVFIFPPSDEQLKSGTASVVCLLNNFYPREAKVQWKVDNALQSGNSQESVTEQDSKDSTYSLSSTLTLSKADYEKHKVYACEVTHQGLSSPVTKSFNRGEC
1.93 nM | 6.88 nM | SI-95X56 (antibody) chain 1: not shown chain 2: DIVMTQSPSSVSLSLGDRVTITCHSSQDINSNIGWLQQKPGKAFKGLIYHGTNLDDGVPSRFSGSGSGADYTLTISSLQAEDFATYYCVQYAQFPWTFGPGTKLEIKRTVAAPSVFIFPPSDEQLKSGTASVVCLLNNFYPREAKVQWKVDNALQSGNSQESVTEQDSKDSTYSLSSTLTLSKADYEKHKVYACEVTHQGLSSPVTKSFNRGEC
1.37 nM | 25.7 nM | SI-95X54 (antibody) chain 1: not shown chain 2: DIVMTQSPSSVSLSLGDRVTITCHSSQDINSNIGWLQQKPGKAFKGLIYHGTNLDDGVPSRFSGSGSGADYTLTISSLQAEDFATYYCVQYAQFPWTFGPGTKLEIKRTVAAPSVFIFPPSDEQLKSGTASVVCLLNNFYPREAKVQWKVDNALQSGNSQESVTEQDSKDSTYSLSSTLTLSKADYEKHKVYACEVTHQGLSSPVTKSFNRGEC

From US20260337278 (published 2026)
